Data from US20240052034A1 (PANDION OPERATIONS, published 2024).
Where a chain is given by its changes, count along the chain named. Several values for one entry are separate records, joined by “and”; a condition that tells them apart may be missing. Identical values can stand only once. Values belong to the binder of their own block, whether it stands above or below them.

What was measured:
[1] = molecular target: PD-1 on PD-1 reporter Jurkat cells (UniProt Q15116 25-288, limits assumed); assay: cell-based or functional assay
mouse PD-1 = molecular target: T1, mouse PD-1 (mouse, UniProt Q02242 25-167, limits assumed); assay: BLI (biosensor): test article on anti-human IgG Fc tips, PD-1 in solution
T1 sequence (looked up): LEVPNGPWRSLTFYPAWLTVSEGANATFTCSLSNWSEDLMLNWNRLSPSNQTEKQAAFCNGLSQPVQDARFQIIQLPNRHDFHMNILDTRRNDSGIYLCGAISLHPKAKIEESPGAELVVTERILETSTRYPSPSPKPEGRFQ
Procedure: (§1) Anti-human IgG Fc (AHC) biosensors were equilibrated in assay buffer for 20 minutes. Test articles were diluted to 10 μg/mL in assay buffer (lx PBS, 1% BSA, 0.05% Tween20). A seven-point serial dilution of human PD-1 was prepared in assay buffer, starting at 1000 nM down to 15.625 nM (human PD-1) or 2000 nM down to 31.25 nM (mouse PD-1). Test articles were loaded on tips for 180 s followed by a 180 s association phase with PD-1 and 180 s dissociation phase in assay buffer.
as §1, with “article was” for “articles were”, “(human and cyno” for “(human”

human PD-1 = molecular target: T2, human PD-1 (human, UniProt Q15116 25-167, limits assumed); assay: as above
T2 construct: also called huPD-1
Procedure: as §1
as §1, with “article was” for “articles were”, “(human and cyno” for “(human”

cynomolgus PD-1 = molecular target: T3, cynomolgus PD-1 (cynomolgus, UniProt B0LAJ3 25-170); assay: as above
T3 construct: also called cyno PD-1
Procedure: as §1
as §1, with “article was” for “articles were”, “(human and cyno” for “(human”

[2] = molecular target: T4, Fc-tagged cynomolgus PD-1 (cynomolgus, UniProt B0LAJ3 25-170); assay: BLI (biosensor): Fc-tagged PD-1 on anti-human IgG Fc tips, fragment in solution
T4 construct: Printed 'Fe-tagged', read as Fc-tagged; also called cyno PD-1; Fe-tagged cynomolgus PD-1 (so in the source)
Procedure: (§2) Anti-human IgG Fc (AHC) or Streptavidin (SA) biosensor were equilibrated in assay buffer for 20 minutes. Fe-tagged mouse and cynomolgus PD-1 was diluted to 5 μg/mL and biotinylated huPD-1 article was diluted to 0.5 μg/mL in assay buffer (1×PBS, 1% BSA, 0.05% Tween20). […] PD-1 was loaded on tips for 180 s followed by a 180 s association phase with PD-1 and 180 s dissociation phase in assay buffer.

Fc-tagged mouse PD-1 = molecular target: T5, Fc-tagged mouse PD-1 (mouse, UniProt Q02242 25-167, limits assumed); assay: as above
T5 construct: Printed 'Fe-tagged', read as Fc-tagged; also called Fe-tagged mouse PD-1 (so in the source); not shown: Fc tag
T5 sequence (looked up): T1 sequence (looked up)
Procedure: as §2

biotinylated huPD-1 = molecular target: T6, biotinylated huPD-1 (human, UniProt Q15116 25-167, limits assumed, biotinylated (site not stated)); assay: BLI (biosensor): biotinylated huPD-1 on streptavidin tips, fragment in solution
T6 construct: also called human PD-1
Procedure: as §2

T2 sequence (Q15116 25-167 limits assumed): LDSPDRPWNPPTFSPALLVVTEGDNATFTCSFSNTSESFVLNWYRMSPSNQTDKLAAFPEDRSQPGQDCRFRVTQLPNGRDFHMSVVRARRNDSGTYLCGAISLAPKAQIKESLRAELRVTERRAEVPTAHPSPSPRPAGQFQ
T6 sequence (Q15116 25-167 limits assumed): as above
PD-1 on PD-1 reporter Jurkat cells, sequence (Q15116 25-288 limits assumed): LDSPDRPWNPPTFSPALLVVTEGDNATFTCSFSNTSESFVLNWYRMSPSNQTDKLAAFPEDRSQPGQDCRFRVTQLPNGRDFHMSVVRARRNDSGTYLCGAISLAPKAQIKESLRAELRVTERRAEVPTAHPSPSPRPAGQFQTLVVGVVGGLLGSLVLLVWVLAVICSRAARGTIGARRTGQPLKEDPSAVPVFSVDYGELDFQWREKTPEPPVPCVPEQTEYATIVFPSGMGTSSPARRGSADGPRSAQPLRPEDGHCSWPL
T4 sequence (B0LAJ3 entry or part of it limits assumed): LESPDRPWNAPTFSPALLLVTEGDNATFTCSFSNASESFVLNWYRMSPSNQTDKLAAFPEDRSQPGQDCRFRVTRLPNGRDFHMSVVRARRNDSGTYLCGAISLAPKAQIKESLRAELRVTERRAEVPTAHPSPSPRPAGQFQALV
T3 sequence (B0LAJ3 entry or part of it limits assumed): as above

EC50 of SHP-2 recruitment, PD-1 reporter Jurkat cells, Ig-tethered test article on anti-human IgG coated plates [1]: 4.83 nM
EC50 of SHP-2 recruitment, PD-1 reporter Jurkat cells, soluble test article [1]: 1.21 nM
kon (human PD-1): 67600 M⁻¹ s⁻¹ and 41300 M⁻¹ s⁻¹
response (human PD-1): 0.227
koff (mouse PD-1): 0.0228 s⁻¹ and 0.0657 s⁻¹
kon (mouse PD-1): 5940 M⁻¹ s⁻¹ and 2670 M⁻¹ s⁻¹
response (mouse PD-1): 0.0367
Kd (cynomolgus PD-1): 13.5 nM
koff (cynomolgus PD-1): 0.000531 s⁻¹
kon (cynomolgus PD-1): 39400 M⁻¹ s⁻¹
B6: PD1AB53 (bispecific antibody, human IgG1, kappa)
heavy: EVQLLESGGGLVQPGGSLRLSCAASGFTFSSYDMSWVRQAPGKGLEWVSGITISGGSTYYADSVKGRFTISRDNSKNTLYLQMNSLRAEDTAVYYCARGRGGSGWLDYWGQGTTVTVSSASTKGPSVFPLAPSSKSTSGGTAALGCLVKDYFPEPVTVSWNSGALTSGVHTFPAVLQSSGLYSLSSVVTVPSSSLGTQTYICNVNHKPSNTKVDKKVEPKSCDKTHTCPPCPAPEAAGAPSVFLFPPKPKDTLMISRTPEVTCVVVDVSHEDPEVKFNWYVDGVEVHNAKTKPREEQYNSTYRVVSVLTVLHQDWLNGKEYKCKVSNKALPAPIEKTISKAKGQPREPQVYTLPPSREEMTKNQVSLTCLVKGFYPSDIAVEWESNGQPENNYKTTPPVLDSDGSFFLYSKLTVDKSRWQQGNVFSCSVMHEALHNHYTQKSLSLSPGGGGSEGGGSEGGGSEDIQMTQSPSSLSASVGDRVTITCQASRDIKNYLAWYQQKPGKAPKLLIYAASSLQSGVPSRFSGSGSGTDFTLTISSLQPEDFATYYCQQSYSTPPTFGCGTKVDIKGGGGSGGGGSGGGGSGGGGSEVQLVQSGAEVKKPGASVKVSCKASGYSFTTYYMHWVRQAPGQCLEWMGIINPSGGSTSYAQKFQGRVTMTRDTSTSTVYMELSSLRSEDTAVYYCASGWVYWGQGTLVTVSS
light: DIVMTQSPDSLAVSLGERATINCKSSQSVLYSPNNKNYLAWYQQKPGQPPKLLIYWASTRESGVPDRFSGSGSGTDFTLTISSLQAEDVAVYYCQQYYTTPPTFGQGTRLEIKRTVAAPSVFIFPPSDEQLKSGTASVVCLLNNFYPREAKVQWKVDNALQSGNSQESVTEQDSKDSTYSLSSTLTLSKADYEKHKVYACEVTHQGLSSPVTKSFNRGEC

Kd [2]: 58.6 nM
binding result (Fc-tagged mouse PD-1): no binding
Kd (biotinylated huPD-1): 89.9 nM
B7: scFv moiety of the PD1AB37 (scFv)
scFv: EVQLLESGGGLVQPGGSLRLSCAASGFTFSSYDMSWVRQAPGKGLEWVSGITISGGSTYYADSVKGRFTISRDNSKNTLYLQMNSLRAEDTAVYYCARGRGGSGWLDYWGQGTTVTVSSGGGGSGGGGSGGGGSGGGGSDIVMTQSPDSLAVSLGERATINCKSSQSVLYSPNNKNYLAWYQQKPGQPPKLLIYWASTRESGVPDRFSGSGSGTDFTLTISSLQAEDVAVYYCQQYYTTPPTFGQGTRLEIK
notes: also called PD1AB37 scFv

Kd [2]: 58.6 nM
binding result (Fc-tagged mouse PD-1): no binding
B8: scFv moiety of the PD1AB38 (scFv)
scFv: B7 scFv
notes: also called PD1AB38 scFv

Kd [2]: 1170 nM
Kd (Fc-tagged mouse PD-1): 1060 nM
Kd (biotinylated huPD-1): 1350 nM
B10: scFv moiety of the PD1AB53 (scFv)
scFv: DIQMTQSPSSLSASVGDRVTITCQASRDIKNYLAWYQQKPGKAPKLLIYAASSLQSGVPSRFSGSGSGTDFTLTISSLQPEDFATYYCQQSYSTPPTFGCGTKVDIKGGGGSGGGGSGGGGSGGGGSEVQLVQSGAEVKKPGASVKVSCKASGYSFTTYYMHWVRQAPGQCLEWMGIINPSGGSTSYAQKFQGRVTMTRDTSTSTVYMELSSLRSEDTAVYYCASGWVYWGQGTLVTVSS
notes: also called PD1AB53 scFv

The next lines start with the binder.

B1: PD1AB38 (bispecific antibody, human IgG1, kappa)
heavy: EVQLVQSGAEVKKPGASVKVSCKASGYSFTTYYMHWVRQAPGQGLEWMGIINPSGGSTSYAQKFQGRVTMTRDTSTSTVYMELSSLRSEDTAVYYCASGWVYWGQGTLVTVSSASTKGPSVFPLAPSSKSTSGGTAALGCLVKDYFPEPVTVSWNSGALTSGVHTFPAVLQSSGLYSLSSVVTVPSSSLGTQTYICNVNHKPSNTKVDKKVEPKSCDKTHTCPPCPAPEAAGAPSVFLFPPKPKDTLMISRTPEVTCVVVDVSHEDPEVKFNWYVDGVEVHNAKTKPREEQYNSTYRVVSVLTVLHQDWLNGKEYKCKVSNKALPAPIEKTISKAKGQPREPQVYTLPPSREEMTKNQVSLTCLVKGFYPSDIAVEWESNGQPENNYKTTPPVLDSDGSFFLYSKLTVDKSRWQQGNVFSCSVMHEALHNHYTQKSLSLSPGGGGGSGGGGSGGGGSEVQLLESGGGLVQPGGSLRLSCAASGFTFSSYDMSWVRQAPGKGLEWVSGITISGGSTYYADSVKGRFTISRDNSKNTLYLQMNSLRAEDTAVYYCARGRGGSGWLDYWGQGTTVTVSSGGGGSGGGGSGGGGSGGGGSDIVMTQSPDSLAVSLGERATINCKSSQSVLYSPNNKNYLAWYQQKPGQPPKLLIYWASTRESGVPDRFSGSGSGTDFTLTISSLQAEDVAVYYCQQYYTTPPTFGQGTRLEIK
light: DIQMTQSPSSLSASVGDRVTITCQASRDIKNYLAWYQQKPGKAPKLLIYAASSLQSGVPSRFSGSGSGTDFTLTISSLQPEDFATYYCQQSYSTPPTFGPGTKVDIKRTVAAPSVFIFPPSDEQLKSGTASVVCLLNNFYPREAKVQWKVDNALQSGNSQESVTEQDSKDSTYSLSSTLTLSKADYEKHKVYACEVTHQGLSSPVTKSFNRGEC
EC50 of SHP-2 recruitment, PD-1 reporter Jurkat cells, Ig-tethered test article on anti-human IgG coated plates [1]: 20.9 nM
EC50 of SHP-2 recruitment, PD-1 reporter Jurkat cells, soluble test article [1]: 0.302 nM
Kd (mouse PD-1): 979 nM
koff (mouse PD-1): 0.0229 s⁻¹
kon (mouse PD-1): 23400 M⁻¹ s⁻¹

B2: PD1AB43 (bispecific antibody, human IgG1, kappa)
heavy: B1 heavy with E1Q, N52A
light: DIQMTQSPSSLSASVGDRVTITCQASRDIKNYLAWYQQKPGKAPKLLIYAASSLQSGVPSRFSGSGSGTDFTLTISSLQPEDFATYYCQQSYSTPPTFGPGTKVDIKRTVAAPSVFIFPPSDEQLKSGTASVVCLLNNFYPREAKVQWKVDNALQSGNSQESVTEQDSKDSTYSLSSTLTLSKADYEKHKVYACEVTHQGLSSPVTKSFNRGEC
EC50 of SHP-2 recruitment, PD-1 reporter Jurkat cells, Ig-tethered test article on anti-human IgG coated plates [1]: 8.51 nM
EC50 of SHP-2 recruitment, PD-1 reporter Jurkat cells, soluble test article [1]: 0.574 nM
Kd (mouse PD-1): 1430 nM
koff (mouse PD-1): 0.0404 s⁻¹
kon (mouse PD-1): 28200 M⁻¹ s⁻¹
response (mouse PD-1): 0.0546

B3: PD1AB37 (bispecific antibody, human IgG1, kappa)
heavy: B1 heavy with T31S
light: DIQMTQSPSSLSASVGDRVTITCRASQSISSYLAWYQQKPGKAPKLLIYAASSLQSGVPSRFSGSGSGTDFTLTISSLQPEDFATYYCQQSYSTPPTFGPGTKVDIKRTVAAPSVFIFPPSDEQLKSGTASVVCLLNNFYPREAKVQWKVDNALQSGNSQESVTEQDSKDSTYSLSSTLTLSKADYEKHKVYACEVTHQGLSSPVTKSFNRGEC
EC50 of SHP-2 recruitment, PD-1 reporter Jurkat cells, Ig-tethered test article on anti-human IgG coated plates [1]: 24.5 nM
EC50 of SHP-2 recruitment, PD-1 reporter Jurkat cells, soluble test article [1]: 0.37 nM
Kd (human PD-1): 18.3 nM
koff (human PD-1): 0.000824 s⁻¹
kon (human PD-1): 45000 M⁻¹ s⁻¹
Kd (mouse PD-1): 4860 nM
koff (mouse PD-1): 0.0245 s⁻¹
kon (mouse PD-1): 5050 M⁻¹ s⁻¹
Kd (cynomolgus PD-1): 15.4 nM
koff (cynomolgus PD-1): 0.000566 s⁻¹
kon (cynomolgus PD-1): 36800 M⁻¹ s⁻¹

B4: Fab moiety of the PD1AB37 (Fab, V domains shown)
VH: EVQLVQSGAEVKKPGASVKVSCKASGYSFTSYYMHWVRQAPGQGLEWMGIINPSGGSTSYAQKFQGRVTMTRDTSTSTVYMELSSLRSEDTAVYYCASGWVYWGQGTLVTVSS
VL: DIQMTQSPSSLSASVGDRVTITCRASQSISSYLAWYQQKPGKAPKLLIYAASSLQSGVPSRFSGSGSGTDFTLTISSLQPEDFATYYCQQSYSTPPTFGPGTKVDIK
notes: also called PD1AB37 Fab
Kd [2]: 497 nM
Kd (Fc-tagged mouse PD-1): 1350 nM
Kd (biotinylated huPD-1): 330 nM

B5: Fab moiety of the PD1AB38 (Fab, V domains shown)
VH: B4 VH with S31T
VL: DIQMTQSPSSLSASVGDRVTITCQASRDIKNYLAWYQQKPGKAPKLLIYAASSLQSGVPSRFSGSGSGTDFTLTISSLQPEDFATYYCQQSYSTPPTFGPGTKVDIK
notes: also called PD1AB38 Fab
Kd [2]: 172 nM
Kd (Fc-tagged mouse PD-1): 176 nM
Kd (biotinylated huPD-1): 140 nM

B9: Fab moiety of the PD1AB53 (Fab, V domains shown)
VH: EVQLLESGGGLVQPGGSLRLSCAASGFTFSSYDMSWVRQAPGKGLEWVSGITISGGSTYYADSVKGRFTISRDNSKNTLYLQMNSLRAEDTAVYYCARGRGGSGWLDYWGQGTTVTVSS
VL: not shown
notes: also called PD1AB53 Fab
Kd [2]: 30.3 nM
binding result (Fc-tagged mouse PD-1): no binding (tested: PD1AB53 Fab: dilution series from 500 nM)
Kd (biotinylated huPD-1): 32.6 nM
